Reference: patent US12630600B2 (MEDIMMUNE LIMITED, priority 2022, dated 2026)
Starred links: 1 amine or outer side, 2 acyl side, 3 side chain; linkers in the order of their positions; H or OH if unused. Non-standard residues stand in square brackets, D forms with d. Groups on a side chain read outwards from the residue. No end group written: not given here. *: point of attachment. C20 diacid = O=C(O)CCCCCCCCCCCCCCCCCCC(=O)*; C18 diacid = O=C(O)CCCCCCCCCCCCCCCCC(=O)*; γGlu = O=C(O)[C@H](CCC(=O)[*:2])N[*:1]; αMeF = C[C@](N)(Cc1ccccc1)C(=O)O; AEEA = NCCOCCOCC(=O)O; Aib = CC(C)(N)C(=O)O

Key:
human GLP-1 receptor = human GLP-1 receptor (human, UniProt P43220); assay: cell-based or functional assay
human glucagon receptor = human glucagon receptor (human, UniProt P47871); assay: cell-based or functional assay

Row | cAMP production EC50 (human GLP-1 receptor) [nM] | cAMP production EC50 (human glucagon receptor) [nM] | Binder
1 | 0.0231 | 0.0369 | H[Aib]QGTFTSDVSK[αMeF]LDKK([AEEA-AEEA-γGlu-C18 diacid])RAQDFVRWLL[Aib]E-NH2 (N-terminus assumed; SMILES CC(C)C[C@H](NC(=O)[C@H](Cc1c[nH]c2ccccc12)NC(=O)[C@H](CCCNC(=N)N)NC(=O)[C@@H](NC(=O)[C@H](Cc1ccccc1)NC(=O)[C@H](CC(=O)O)NC(=O)[C@H](CCC(N)=O)NC(=O)[C@H](C)NC(=O)[C@H](CCCNC(=N)N)NC(=O)[C@H](CCCCNC(=O)COCCOCCNC(=O)COCCOCCNC(=O)CC[C@H](NC(=O)CCCCCCCCCCCCCCCCC(=O)O)C(=O)O)NC(=O)[C@H](CCCCN)NC(=O)[C@H](CC(=O)O)NC(=O)[C@H](CC(C)C)NC(=O)[C@](C)(Cc1ccccc1)NC(=O)[C@H](CCCCN)NC(=O)[C@H](CO)NC(=O)[C@@H](NC(=O)[C@H](CC(=O)O)NC(=O)[C@H](CO)NC(=O)[C@@H](NC(=O)[C@H](Cc1ccccc1)NC(=O)[C@@H](NC(=O)CNC(=O)[C@H](CCC(N)=O)NC(=O)C(C)(C)NC(=O)[C@@H](N)Cc1c[nH]cn1)[C@@H](C)O)[C@@H](C)O)C(C)C)C(C)C)C(=O)N[C@@H](CC(C)C)C(=O)NC(C)(C)C(=O)N[C@@H](CCC(=O)O)C(N)=O) [Peptide 420]
2 | 0.0881 | 0.222 | H[Aib]QGTFTSDVSK[αMeF]LDTK([AEEA-AEEA-γGlu-γGlu-C20 diacid])RAQDFVAWLEA[Aib]G-OH (N-terminus assumed; SMILES CC(C)C[C@H](NC(=O)[C@H](Cc1c[nH]c2ccccc12)NC(=O)[C@H](C)NC(=O)[C@@H](NC(=O)[C@H](Cc1ccccc1)NC(=O)[C@H](CC(=O)O)NC(=O)[C@H](CCC(N)=O)NC(=O)[C@H](C)NC(=O)[C@H](CCCNC(=N)N)NC(=O)[C@H](CCCCNC(=O)COCCOCCNC(=O)COCCOCCNC(=O)CC[C@H](NC(=O)CC[C@H](NC(=O)CCCCCCCCCCCCCCCCCCC(=O)O)C(=O)O)C(=O)O)NC(=O)[C@@H](NC(=O)[C@H](CC(=O)O)NC(=O)[C@H](CC(C)C)NC(=O)[C@](C)(Cc1ccccc1)NC(=O)[C@H](CCCCN)NC(=O)[C@H](CO)NC(=O)[C@@H](NC(=O)[C@H](CC(=O)O)NC(=O)[C@H](CO)NC(=O)[C@@H](NC(=O)[C@H](Cc1ccccc1)NC(=O)[C@@H](NC(=O)CNC(=O)[C@H](CCC(N)=O)NC(=O)C(C)(C)NC(=O)[C@@H](N)Cc1c[nH]cn1)[C@@H](C)O)[C@@H](C)O)C(C)C)[C@@H](C)O)C(C)C)C(=O)N[C@@H](CCC(=O)O)C(=O)N[C@@H](C)C(=O)NC(C)(C)C(=O)NCC(=O)O) [Peptide 418]
3 | 0.0873 | 0.18 | H[Aib]QGTFTSDVSK[αMeF]LDRK([AEEA-AEEA-γGlu-C18 diacid])RAQDFVRWLL[Aib]TE-OH (N-terminus assumed; SMILES CC(C)C[C@H](NC(=O)[C@H](Cc1c[nH]c2ccccc12)NC(=O)[C@H](CCCNC(=N)N)NC(=O)[C@@H](NC(=O)[C@H](Cc1ccccc1)NC(=O)[C@H](CC(=O)O)NC(=O)[C@H](CCC(N)=O)NC(=O)[C@H](C)NC(=O)[C@H](CCCNC(=N)N)NC(=O)[C@H](CCCCNC(=O)COCCOCCNC(=O)COCCOCCNC(=O)CC[C@H](NC(=O)CCCCCCCCCCCCCCCCC(=O)O)C(=O)O)NC(=O)[C@H](CCCNC(=N)N)NC(=O)[C@H](CC(=O)O)NC(=O)[C@H](CC(C)C)NC(=O)[C@](C)(Cc1ccccc1)NC(=O)[C@H](CCCCN)NC(=O)[C@H](CO)NC(=O)[C@@H](NC(=O)[C@H](CC(=O)O)NC(=O)[C@H](CO)NC(=O)[C@@H](NC(=O)[C@H](Cc1ccccc1)NC(=O)[C@@H](NC(=O)CNC(=O)[C@H](CCC(N)=O)NC(=O)C(C)(C)NC(=O)[C@@H](N)Cc1c[nH]cn1)[C@@H](C)O)[C@@H](C)O)C(C)C)C(C)C)C(=O)N[C@@H](CC(C)C)C(=O)NC(C)(C)C(=O)N[C@H](C(=O)N[C@@H](CCC(=O)O)C(=O)O)[C@@H](C)O) [Peptide 421]
4 | 0.0969 | 0.264 | H[Aib]QGTFTSDVSK[αMeF]LDTK([AEEA-AEEA-γGlu-C18 diacid])RAQDFVRWLE[Aib]E-OH (N-terminus assumed; SMILES CC(C)C[C@H](NC(=O)[C@H](Cc1c[nH]c2ccccc12)NC(=O)[C@H](CCCNC(=N)N)NC(=O)[C@@H](NC(=O)[C@H](Cc1ccccc1)NC(=O)[C@H](CC(=O)O)NC(=O)[C@H](CCC(N)=O)NC(=O)[C@H](C)NC(=O)[C@H](CCCNC(=N)N)NC(=O)[C@H](CCCCNC(=O)COCCOCCNC(=O)COCCOCCNC(=O)CC[C@H](NC(=O)CCCCCCCCCCCCCCCCC(=O)O)C(=O)O)NC(=O)[C@@H](NC(=O)[C@H](CC(=O)O)NC(=O)[C@H](CC(C)C)NC(=O)[C@](C)(Cc1ccccc1)NC(=O)[C@H](CCCCN)NC(=O)[C@H](CO)NC(=O)[C@@H](NC(=O)[C@H](CC(=O)O)NC(=O)[C@H](CO)NC(=O)[C@@H](NC(=O)[C@H](Cc1ccccc1)NC(=O)[C@@H](NC(=O)CNC(=O)[C@H](CCC(N)=O)NC(=O)C(C)(C)NC(=O)[C@@H](N)Cc1c[nH]cn1)[C@@H](C)O)[C@@H](C)O)C(C)C)[C@@H](C)O)C(C)C)C(=O)N[C@@H](CCC(=O)O)C(=O)NC(C)(C)C(=O)N[C@@H](CCC(=O)O)C(=O)O) [Peptide 419]

More lines, now with the values behind:

Row | Binder | cAMP production EC50 (human GLP-1 receptor) [nM] | cAMP production EC50 (human glucagon receptor) [nM]
5 | H[Aib]QGTFTSDVSK[αMeF]LESK([AEEA-AEEA-γGlu-C18 diacid])RAQDFVRWLEA[Aib]G-OH (N-terminus assumed; SMILES CC(C)C[C@H](NC(=O)[C@H](Cc1c[nH]c2ccccc12)NC(=O)[C@H](CCCNC(=N)N)NC(=O)[C@@H](NC(=O)[C@H](Cc1ccccc1)NC(=O)[C@H](CC(=O)O)NC(=O)[C@H](CCC(N)=O)NC(=O)[C@H](C)NC(=O)[C@H](CCCNC(=N)N)NC(=O)[C@H](CCCCNC(=O)COCCOCCNC(=O)COCCOCCNC(=O)CC[C@H](NC(=O)CCCCCCCCCCCCCCCCC(=O)O)C(=O)O)NC(=O)[C@H](CO)NC(=O)[C@H](CCC(=O)O)NC(=O)[C@H](CC(C)C)NC(=O)[C@](C)(Cc1ccccc1)NC(=O)[C@H](CCCCN)NC(=O)[C@H](CO)NC(=O)[C@@H](NC(=O)[C@H](CC(=O)O)NC(=O)[C@H](CO)NC(=O)[C@@H](NC(=O)[C@H](Cc1ccccc1)NC(=O)[C@@H](NC(=O)CNC(=O)[C@H](CCC(N)=O)NC(=O)C(C)(C)NC(=O)[C@@H](N)Cc1c[nH]cn1)[C@@H](C)O)[C@@H](C)O)C(C)C)C(C)C)C(=O)N[C@@H](CCC(=O)O)C(=O)N[C@@H](C)C(=O)NC(C)(C)C(=O)NCC(=O)O) [Peptide 415] | 0.0147 | 0.301
6 | H[Aib]QGTFTSDVSK[αMeF]LDTK([AEEA-AEEA-γGlu-γGlu-C18 diacid])RAQDFVAWLEA[Aib]G-OH (N-terminus assumed; SMILES CC(C)C[C@H](NC(=O)[C@H](Cc1c[nH]c2ccccc12)NC(=O)[C@H](C)NC(=O)[C@@H](NC(=O)[C@H](Cc1ccccc1)NC(=O)[C@H](CC(=O)O)NC(=O)[C@H](CCC(N)=O)NC(=O)[C@H](C)NC(=O)[C@H](CCCNC(=N)N)NC(=O)[C@H](CCCCNC(=O)COCCOCCNC(=O)COCCOCCNC(=O)CC[C@H](NC(=O)CC[C@H](NC(=O)CCCCCCCCCCCCCCCCC(=O)O)C(=O)O)C(=O)O)NC(=O)[C@@H](NC(=O)[C@H](CC(=O)O)NC(=O)[C@H](CC(C)C)NC(=O)[C@](C)(Cc1ccccc1)NC(=O)[C@H](CCCCN)NC(=O)[C@H](CO)NC(=O)[C@@H](NC(=O)[C@H](CC(=O)O)NC(=O)[C@H](CO)NC(=O)[C@@H](NC(=O)[C@H](Cc1ccccc1)NC(=O)[C@@H](NC(=O)CNC(=O)[C@H](CCC(N)=O)NC(=O)C(C)(C)NC(=O)[C@@H](N)Cc1c[nH]cn1)[C@@H](C)O)[C@@H](C)O)C(C)C)[C@@H](C)O)C(C)C)C(=O)N[C@@H](CCC(=O)O)C(=O)N[C@@H](C)C(=O)NC(C)(C)C(=O)NCC(=O)O) [Peptide 417] | 0.0339 | 0.0164
7 | H[Aib]QGTFTSDVSK[αMeF]LESK([AEEA-AEEA-γGlu-C20 diacid])RAQDFVRWLEA[Aib]G-OH (N-terminus assumed; SMILES CC(C)C[C@H](NC(=O)[C@H](Cc1c[nH]c2ccccc12)NC(=O)[C@H](CCCNC(=N)N)NC(=O)[C@@H](NC(=O)[C@H](Cc1ccccc1)NC(=O)[C@H](CC(=O)O)NC(=O)[C@H](CCC(N)=O)NC(=O)[C@H](C)NC(=O)[C@H](CCCNC(=N)N)NC(=O)[C@H](CCCCNC(=O)COCCOCCNC(=O)COCCOCCNC(=O)CC[C@H](NC(=O)CCCCCCCCCCCCCCCCCCC(=O)O)C(=O)O)NC(=O)[C@H](CO)NC(=O)[C@H](CCC(=O)O)NC(=O)[C@H](CC(C)C)NC(=O)[C@](C)(Cc1ccccc1)NC(=O)[C@H](CCCCN)NC(=O)[C@H](CO)NC(=O)[C@@H](NC(=O)[C@H](CC(=O)O)NC(=O)[C@H](CO)NC(=O)[C@@H](NC(=O)[C@H](Cc1ccccc1)NC(=O)[C@@H](NC(=O)CNC(=O)[C@H](CCC(N)=O)NC(=O)C(C)(C)NC(=O)[C@@H](N)Cc1c[nH]cn1)[C@@H](C)O)[C@@H](C)O)C(C)C)C(C)C)C(=O)N[C@@H](CCC(=O)O)C(=O)N[C@@H](C)C(=O)NC(C)(C)C(=O)NCC(=O)O) [Peptide 416] | 0.0677 | 0.581
